The text below walks through data of PMC6900184, “The Escherichia coli MarA protein regulates the ycgZ‐ymgABC operon to inhibit biofilm formation”.

In this data set the target is T1, MarA (Escherichia coli, UniProt P0ACH5 1-127).
T1 sequence: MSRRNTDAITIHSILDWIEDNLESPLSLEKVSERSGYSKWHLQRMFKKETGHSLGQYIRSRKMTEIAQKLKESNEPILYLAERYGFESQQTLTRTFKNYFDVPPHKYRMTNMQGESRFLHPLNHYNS
Put plainly: EMSA; MarA 0.4, 1.2, 2.0 uM; EMSA: 20 mM Tris pH 7, 10 mM MgCl2, 100 mM EDTA (so in the source), 120 mM KCl; 5% polyacrylamide gel; temperature not stated. The conditions noted are these: protein: recombinant; tags: N-terminal His6 tag (pET28a) removed by thrombin; label: 5'-32P; 5' overhang 4 nt at both ends (EcoRI, HindIII).

B1: ycgZ.1m (dsDNA)
DNA 1: AATTCATATGCATTACGTCTAATTCGAAAAAATTAATTTATCATTCTGTACACATATTTCGTACAAGTTTGCTATTGTTACTTCACTTAACATTGATTAACATTTTTAACAGAGGCGTAGCATGA
DNA 2: AGCTTCATGCTACGCCTCTGTTAAAAATGTTAATCAATGTTAAGTGAAGTAACAATAGCAAACTTGTACGAAATATGTGTACAGAATGATAAATTAATTTTTTCGAATTAGACGTAATGCATATG
With B1, the binding result is recorded as “no binding”.
